Patent US20160168250A1 (Genentech, published 2016)

T1: His-tagged IgD2-D3 of human FGFR3-IIIb (human, UniProt P22607-2 143-374, limits assumed)
T1 construct: domain: IgD2-D3; also called FGFR3-IIIb-His protein; Human FGFR3 ECD IIIb; not shown: His tag
T1 sequence (looked up): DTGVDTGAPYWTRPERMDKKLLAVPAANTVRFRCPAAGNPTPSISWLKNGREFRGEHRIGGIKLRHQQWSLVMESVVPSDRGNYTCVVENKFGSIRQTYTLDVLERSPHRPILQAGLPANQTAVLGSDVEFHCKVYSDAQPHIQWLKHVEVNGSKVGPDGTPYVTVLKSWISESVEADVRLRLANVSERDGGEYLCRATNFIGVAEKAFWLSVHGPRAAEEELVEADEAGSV

T2: human FGFR3-IIIb ECD-human Fc chimeric protein (human, UniProt P22607-2 23-377)
T2 construct: extracellular domain; also called FGFR3-Fc chimeric protein (IIIb); not shown: human Fc
T2 sequence (looked up): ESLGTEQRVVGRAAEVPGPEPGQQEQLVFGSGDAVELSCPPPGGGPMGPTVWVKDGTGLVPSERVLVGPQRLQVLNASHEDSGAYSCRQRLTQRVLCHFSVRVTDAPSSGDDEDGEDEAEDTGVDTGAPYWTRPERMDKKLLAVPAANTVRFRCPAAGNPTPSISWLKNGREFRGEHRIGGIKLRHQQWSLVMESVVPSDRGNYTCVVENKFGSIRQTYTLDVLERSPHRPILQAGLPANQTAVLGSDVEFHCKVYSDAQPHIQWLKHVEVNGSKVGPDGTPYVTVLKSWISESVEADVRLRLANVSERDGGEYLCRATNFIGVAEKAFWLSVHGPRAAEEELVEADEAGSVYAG


Columns and labels:
FGFR3 on OPM2 cells = molecular target: T3, FGFR3 on OPM2 cells (human, UniProt P22607); test: Scatchard analysis: radioiodinated (125I) R3Mab on OPM2 cells in suspension with unlabeled antibody, 2 h at room temperature; mean of two binding experiments
T3 construct: full length, on cells; also called FGFR3 K650E
Method: (§1) FIGS. 23A and 23B: Cell surface expression levels of FGFR3 in myeloma and bladder cancer cells. (FIG. 23A) Cell surface FGFR3 expression in myeloma cells and bladder cancer cells assessed by FACS analysis. Cells were stained with phycoerythin-conjugated mouse mAb against human FGFR3 (FAB766P, R&D Systems) or phycoerythin-conjugated isotype control mouse IgG1(BD Pharmingen). (FIG. 23B) Scatchard analysis of FGFR3 density in myeloma cells and bladder cancer cells. […] After incubation at RT for 2 hours, cells were pelleted by centrifugation and washed twice. Specifically bound ¹²⁵I was determined.

[1] = molecular target: T1, His-tagged IgD2-D3 of human FGFR3-IIIb; test: BIAcore; R3Mab on CM5 chip, FGFR3-His injected
Method: For kinetic measurement, two-fold serial dilutions of FGFR3-IIIb or IIIc-His protein (starting from 67 nM) were injected in PBST buffer at 25° C. with a flow rate of 30 μl/minute. Association rates (Kon, per mol/s) and dissociation rates (Koff, per s) were calculated using a simple one-one Langmuir binding model (BIAcore Evaluation Software version 3.2). The equilibrium dissociation constant (Kd, per mol) was calculated as the ratio of Koff/Kon.

FGFR3 on RT112 cells = molecular target: T4, FGFR3 on RT112 cells (human, UniProt P22607-2); test: Scatchard analysis: radioiodinated (125I) R3Mab on RT112 cells in suspension with unlabeled antibody, 2 h at room temperature; mean of two binding experiments
T4 construct: full length, on cells; also called WT FGFR3
Method: as §1

FGFR3 on UMUC-14 cells = molecular target: T5, FGFR3 on UMUC-14 cells (human, UniProt P22607-2); test: Scatchard analysis: radioiodinated (125I) R3Mab on UMUC-14 cells in suspension with unlabeled antibody, 2 h at room temperature; mean of two binding experiments
T5 construct: full length, on cells; Same protein as r1, here on intact cells and not in lysates; also called FGFR3^S249C on cells
Method: as §1

[2] = molecular target: T2, human FGFR3-IIIb ECD-human Fc chimeric …; test: ELISA: blocking of FGF9 binding to captured FGFR3-IIIb-Fc
Method: (§2) Specific binding was detected using an anti-human Fab antibody. […] Error bars represent standard error of the mean (SEM) and are sometimes smaller than symbols.
(§3) To test the effect of antibodies to FGFR3 on FGF/FGFR3 interaction, FGFR3-Fc chimeric proteins were captured on Maxisorp plate coated with anti-human immunoglobulin Fcγ fragment-specific antibody (Jackson Immunoresearch, West Grove, Pa.). After wash, increasing amount of FGFR3 antibody was added to the plate and incubated for 30 minutes.

FGFR3 on KMS11 cells = molecular target: T6, FGFR3 on KMS11 cells (human, UniProt P22607); test: Scatchard analysis: radioiodinated (125I) R3Mab on KMS11 cells in suspension with unlabeled antibody, 2 h at room temperature; mean of two binding experiments
T6 construct: full length, on cells; also called FGFR3 Y373C
Method: as §1

[3] = molecular target: T2, human FGFR3-IIIb ECD-human Fc chimeric …; test: direct ELISA: FGFR ECD-human Fc chimeric protein coated on the plate, R3Mab titrated, detection with HRP anti-human Fab
Description: as §2
(§4) cDNAs encoding the extracellular domains (ECD) of human FGFR1-IIIb, IIIc, FGFR2-IIIb and IIIc, FGFR3-IIIb and IIIc, and FGFR4 were cloned into pRK-based vector to generate human FGFR-human Fc chimeric proteins. The recombinant proteins were produced by transiently transfecting Chinese hamster ovary (CHO) cells and purified via protein A affinity chromatography. To test binding of antibodies to human FGFRs, Maxisorp 96-well plates (Nunc) were coated overnight at 4° C. with 50 μl of 2 μg/ml of FGFR ECD-human Fc chimeric proteins. After blocking with phosphate-buffered saline (PBS)/3% BSA, FGFR3 antibody was added and incubated at RT for 2 hours. Specifically bound FGFR3 antibody was detected using an HRP-conjugated anti-human Fab and the TMB peroxidase colorigenic substrate (KPL, Gaithersburg, Md.).

[4] = molecular target: T7, human FGFR4 ECD-human Fc chimeric protein (human, UniProt P22455 22-369); test: as above
T7 construct: extracellular domain; not shown: human Fc
Description: as §2, §4

[5] = molecular target: T2, human FGFR3-IIIb ECD-human Fc chimeric …; test: ELISA: blocking of FGF1 binding to captured FGFR3-IIIb-Fc
Method: as §2, §3

[6] = molecular target: T1, His-tagged IgD2-D3 of human FGFR3-IIIb; test: BIAcore

Row | Kd (FGFR3 on OPM2 cells) [nM] | Kd [1] [nM] | koff [1] [s⁻¹] | kon [1] [M⁻¹ s⁻¹] | Kd (FGFR3 on RT112 cells) [nM] | Kd (FGFR3 on UMUC-14 cells) [nM] | IC50 [2] [nM] | Kd (FGFR3 on KMS11 cells) [nM] | EC50 (read off the curve) [3] [nM] | binding result [4] | IC50 [5] [nM] | Kd [6] [nM] | Binder
1 | 0.64 | 0.111 | 0.0002 | 1.8e+06 | 0.16 | 0.34 | 1.1 | 0.35 | ~0.3 | no binding (tested: about 60 nM) | 0.3 |  | anti-FGFR3 antibody clone 184.6.1N54S (antibody, V domains shown, also called R3Mab; R3 Mab) VH: EVQLVESGGGLVQPGGSLRLSCAASGFTFTSTGISWVRQAPGKGLEWVGRIYPTSGSTNYADSVKGRFTISADTSKNTAYLQMNSLRAEDTAVYYCARARTYGIYDLYVDYTEYVMDYWGQGTLV VL: DIQMTQSPSSLSASVGDRVTITCRASQDVDTSLAWYQQKPGKAPKLLIYSASFLYSGVPSRFSGSGSGTDFTLTISSLQPEDFATYYCQQSTGHPQTFGQGTKVEIKR
2 |  |  |  |  |  |  |  |  |  |  |  | 0.19 | anti-FGFR3 antibody clone 184.6.58 (antibody, V domains shown) VH: EVQLVESGGGLVQPGGSLRLSCAASGFTFTSTGISWVRQAPGKGLEWVGRIYPTNGSTNYADSVKGRFTISADTSKNTAYLQMNSLRAEDTAVYYCARTYGIYDLYVDYTEYVMDYWGQGTLVTVSS VL: DIQMTQSPSSLSASVGDRVTITCRASQDVDISLAWYQQKPGKAPKLLIYSASSLASGVPSRFSGSGSGTDFTLTISSLQPEDFATYYCQQGAGNPYTFGQGTKVEIK
